Results taken from publication PMC3700353.

Substrate: N[C@@H](CC(=O)c1ccccc1NC=O)C(=O)O
Test: purified protein
Format: biochemical, Drosophila melanogaster
Details: 50 mM potassium phosphate pH 7.4, 22 °C, 0.02–1.00 mM NFK

B1: KFase (kynurenine formamidase) (Drosophila melanogaster) (protein)
chain: MYNPRCKDLDRDYFPSYHTTRFQDQPEPNLAVLEHFVRVTKQHGRELTEKQGITVDHLRYGEGRQLVDVFYSEKTTNQAPLFVFVHGGYWQEMDMSMSCSIVGPLVRRGYRVAVMDYNLCPQVTLEQLMTQFTHFLNWIFDYTEMTKVSSLTFAGHSAGAHLLAQILMRPNVITAQRSKMVWALIFLCGVYDLRELSNLESVNPKNILGLNERNIESVSPMLWEYTDVTVWNSTKIYVVAAEHDSTTFIEQSRHYADVLRKKGYKASFTLFKGYDHFDIIEETAIDDSDVSRFLRNIEIE
Km: 320 ± 60 µM | kcat: 26.4 ± 4.45 s⁻¹
